In experiment [1] the target is T1, Human KIR3DL3 protein (Sino Biological, 16055-H08H) (human, UniProt Q8N743 26-322).
T1 construct: Coated on the ELISA plate
Put plainly: ELISA, coated KIR3DL3, biotinylated protein detected with StrepTactin-HRP. (In general: In an ELISA, binding on a coated surface is turned into a signal by an enzyme label.)
Description: After the liquid was discarded, the plate was washed 3 times with a PBS buffer, 200 μl of PBS blocking solution containing 1% BSA was added, and the plate was incubated for 1 hour at room temperature. The blocking solution was discarded, and the plate was washed 3 times with a PBS buffer. […] The antibodies to be tested were subjected to 3-fold concentration dilution from 100 nM, with a total of 8 gradient concentrations. 100 μl of the diluted antibody was added to each well, and the plate was incubated at 4° C. overnight.

The target of experiment [2] is T2, biotinylated human B7-H7 protein (Acro Biosystems, B77-H82F5) (human, UniProt Q9UM44 23-344, biotinylated).
T2 construct: Bought soluble protein; also called biotin-B7H7 protein
T2 sequence (looked up): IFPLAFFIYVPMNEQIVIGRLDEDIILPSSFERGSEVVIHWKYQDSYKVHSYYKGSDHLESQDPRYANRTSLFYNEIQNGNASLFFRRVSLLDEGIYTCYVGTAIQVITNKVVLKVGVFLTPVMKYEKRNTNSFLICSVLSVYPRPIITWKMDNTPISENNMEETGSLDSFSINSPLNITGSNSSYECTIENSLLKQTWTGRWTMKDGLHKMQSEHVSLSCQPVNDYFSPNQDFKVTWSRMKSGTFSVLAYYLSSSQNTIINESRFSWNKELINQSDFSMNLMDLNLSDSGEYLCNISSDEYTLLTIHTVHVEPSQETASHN
Description: flow cytometry, blocking of biotinylated human B7-H7 binding to HEK-293/CD28H cells. The method, then: This example was intended to study the in vitro blocking activity of human anti-B7-H7 antibodies against the binding of human B7-H7 to its receptor CD28H. […] The cells were adjusted to a cell density of 1×10⁶ cells/mL. […] The cells were incubated at 4° C. for 1 hour in the dark. […] The cells were rinsed twice by adding pre-chilled PBS containing 2% BSA at 100 μL/well, and were centrifuged at 500 g at 4° C. for 5 minutes, and the supernatant was discarded. A fluorescent secondary antibody (PE Streptavidin, BD, Cat #: 554061, 1:200) was added at 100 μL/well, and the cells were incubated at 4° C. for 30 minutes in the dark. The cells were washed twice by adding pre-chilled PBS at 200 μL/well, and centrifuged at 500 g at 4° C. for 5 minutes, and the supernatant was discarded. Finally, the cells were resuspended in pre-chilled PBS at 200 μL/well, and the fluorescence signal values were read using an ACEA Novocyte3000 flow cytometer. IC50 was calculated.
A general note: A flow cytometer gives signals particle by particle.

In experiment [3] the target is T2, biotinylated human B7-H7 protein (Acro …). Description: BLI epitope competition on SA-captured biotinylated B7-H7; competitor (first antibody) PR003251. Here is the method: (§1) Epitope competition experiments were performed on the anti-B7-H7 antibodies using the ForteBio Octet Red96e platform with the same experimental buffer as described above. […] After being equilibrated in a buffer for 120 s, the sensors were immersed in various antibodies diluted to 100 nM for 240 s, and the final signal of the antibody binding to B7-H7 was recorded as the 100% signal for that antibody. Second step, epitope competition experiment: B7-H7 was captured using SA sensors at a capture height of 0.25 nm. The sensors were immersed in a first antibody (concentration: 100 nM) for 240 s, then the SA sensors were immersed in a mixture of the first antibody and a second antibody (final concentration of both antibodies: 100 nM) for 240 s, and the difference in signals before and after immersing the sensors in the mixture of the two antibodies was recorded as the signal for that antibody as the second antibody. The inhibition rate was calculated by the following equation, […]

The target in experiment [4] is T3, human B7-H7 recombinant protein (human, UniProt Q9UM44 23-344).
T3 construct: also called human B7-H7 protein
T3 sequence (looked up): T2 sequence (looked up)
Put plainly: BLI (Octet), antibody captured on AHC sensor, human B7-H7 in solution, 1:1 global fit. The method, then:
The binding kinetics between antigen and antibody was analyzed using an Octet Red 96e (Fortebio) molecular interaction analyzer by biolayer interferometry (BLI) technology.
For determining the affinity of antibodies for antigens, the rotary speed of the sensor was set at 1000 rpm. AHC sensors (Fortebio, #18-5060) placed in one column were first equilibrated in a test buffer for 10 minutes, and then used to capture the anti-B7-H7 antibodies at a capture height of 0.7 nm; and after being equilibrated in the buffer for 120 s, the AHC sensors bound to human B7-H7 (concentrations: 50-3.125 nM and 0 nM) with 2-fold gradient dilution for 180 s and dissociated for 300 s. The AHC sensors were finally regenerated by immersing in a 10 mM glycine-hydrochloric acid solution with pH 1.5 to elute the protein bound to the sensors.
For data analysis using Octet Data Analysis software (Fortebio, version 11.0), 0 nM well was used as the reference well, reference subtraction was performed, “1:1 Global fitting” method was selected for data fitting, the kinetic parameters of the binding of the antigen to the antigen-binding protein were calculated, and the kₒₙ (1/Ms) value, kdis (1/s) value and KD (M) value were obtained.
(Biolayer interferometry detects binding as a change in optical thickness at a sensor tip.)

The target in experiment [5] is T2, biotinylated human B7-H7 protein (Acro …). Put plainly: BLI epitope competition on SA-captured biotinylated B7-H7; competitor (first antibody) PR003249. The method, then: as §1
The target is the same in experiment [6]. Put plainly: flow cytometry, blocking of biotinylated human B7-H7 binding to CHO-K1/KIR3DL3 cells. The source says: This example was intended to study the in vitro blocking activity of human anti-B7-H7 antibodies against the binding of human B7-H7 to its receptor KIR3DL3. A CHO-K1 cell (CHO-K1/KIR3DL3, Harbour BioMed US, Inc.) overexpressing human KIR3DL3 was used in experiments at the cellular level where human B7-H7/human KIR3DL3 binding was blocked. Briefly, the CHO-K1/KIR3DL3 cells were digested and resuspended in PBS containing 2% BSA. The cells were adjusted to a cell density of 1×10⁶ cells/mL. […] The cells were incubated at 4° C. for 1 hour in the dark. […] The cells were rinsed twice by adding pre-chilled PBS containing 2% BSA at 100 μL/well, and were centrifuged at 500 g at 4° C. for 5 minutes, and the supernatant was discarded. A fluorescent secondary antibody (PE Streptavidin, BD, Cat #: 554061, 1:200) was added at 100 μL/well, and the cells were incubated at 4° C. for 30 minutes in the dark. The cells were washed twice by adding pre-chilled PBS at 200 µL/well, and centrifuged at 500 g at 4° C. for 5 minutes, and the supernatant was discarded. Finally, the cells were resuspended in pre-chilled PBS at 200 μL/well, and the fluorescence signal values were read using an ACEA Novocyte3000 flow cytometer. IC50 was calculated.

The target of experiment [7] is T4, human B7-H7 on the cell surface (human, UniProt Q9UM44 23-414).
T4 construct: whole, on cells; also called hB7-H7; hu B7-H7
T4 sequence (looked up): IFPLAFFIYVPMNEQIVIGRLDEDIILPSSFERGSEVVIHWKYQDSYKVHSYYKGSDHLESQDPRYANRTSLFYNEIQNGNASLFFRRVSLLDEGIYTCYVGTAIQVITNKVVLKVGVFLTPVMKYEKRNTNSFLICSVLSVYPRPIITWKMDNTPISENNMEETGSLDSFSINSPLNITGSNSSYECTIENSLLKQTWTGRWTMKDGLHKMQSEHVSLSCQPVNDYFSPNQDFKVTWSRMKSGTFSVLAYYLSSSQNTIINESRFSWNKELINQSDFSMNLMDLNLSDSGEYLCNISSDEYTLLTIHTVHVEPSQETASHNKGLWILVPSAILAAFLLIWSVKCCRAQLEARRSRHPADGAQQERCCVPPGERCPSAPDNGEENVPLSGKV
Description: flow cytometry, HCC827 cells. Here is the method: This example was intended to study the in vitro activity of H2L2 monoclonal antibodies against human B7-H7 in binding to human/cynomolgus monkey B7-H7. Since homologous molecules of B7-H7 were not present in mice, the detection was not performed. […] The cells were adjusted to a cell density of 1×10⁶ cells/mL, respectively. The cells were seeded in a 96-well V-bottom plate (Corning, #3894) at 100 μL/well, and the antibody to be tested at 2× final concentration with 3-fold concentration gradient dilution was then added at 100 μL/well. The cells were incubated at 4° C. for 2 hours in the dark. After the incubation, the cells were rinsed twice by adding pre-chilled PBS containing 2% BSA at 100 μl/well, and centrifuged at 500 g at 4° C. for 5 minutes, and the supernatant was discarded. […] The cells were washed twice by adding pre-chilled PBS containing 2% BSA at 100 μL/well, and centrifuged at 500 g at 4° C. for 5 minutes, and the supernatant was discarded. Finally, the cells were resuspended in pre-chilled PBS containing 2% BSA at 200 μL/well, and the fluorescence signal values were read using an ACEA Novocyte3000 flow cytometer.

The values below come from patent US20250136696A1 (HARBOUR BIOMED SHANGHAI, published 2025).

T1 sequence (Q8N743 26-322 limits assumed): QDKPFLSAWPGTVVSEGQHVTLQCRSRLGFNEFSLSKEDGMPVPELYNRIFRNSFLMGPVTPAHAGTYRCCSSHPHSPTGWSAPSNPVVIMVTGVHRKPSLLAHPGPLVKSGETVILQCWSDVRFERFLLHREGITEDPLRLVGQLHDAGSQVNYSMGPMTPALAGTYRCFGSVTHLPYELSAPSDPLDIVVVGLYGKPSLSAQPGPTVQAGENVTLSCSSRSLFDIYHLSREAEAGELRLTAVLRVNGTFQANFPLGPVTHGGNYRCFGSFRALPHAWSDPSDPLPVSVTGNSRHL

B1: Biotin-B7H4 protein (Acro Biosystems, B74-H82E2) (ligand, UniProt Q7Z7D3 29-258, looked up)
chain: FGISGRHSITVTTVASAGNIGEDGILSCTFEPDIKLSDIVIQWLKEGVLGLVHEFKEGKDELSEQDEMFRGRTAVFADQVIVGNASLRLKNVQLTDAGTYKCYIITSKGKGNANLEYKTGAFSMPEVNVDYNASSETLRCEAPRWFPQPTVVWASQVDQGANFSEVSNTSFELNSENVTMKVVSVLYNVTINNTYSCMIENDIAKATGDIKVTESEIKRRSHLQLLNSKA
modifications: biotinylated
notes: also called negative control protein
For the molecule B1, the binding result in experiment [1] is on record as “no binding (tested: 6 µg/ml)”.

B2: PR003181 (antibody, human IgG4 S228P, kappa)
heavy: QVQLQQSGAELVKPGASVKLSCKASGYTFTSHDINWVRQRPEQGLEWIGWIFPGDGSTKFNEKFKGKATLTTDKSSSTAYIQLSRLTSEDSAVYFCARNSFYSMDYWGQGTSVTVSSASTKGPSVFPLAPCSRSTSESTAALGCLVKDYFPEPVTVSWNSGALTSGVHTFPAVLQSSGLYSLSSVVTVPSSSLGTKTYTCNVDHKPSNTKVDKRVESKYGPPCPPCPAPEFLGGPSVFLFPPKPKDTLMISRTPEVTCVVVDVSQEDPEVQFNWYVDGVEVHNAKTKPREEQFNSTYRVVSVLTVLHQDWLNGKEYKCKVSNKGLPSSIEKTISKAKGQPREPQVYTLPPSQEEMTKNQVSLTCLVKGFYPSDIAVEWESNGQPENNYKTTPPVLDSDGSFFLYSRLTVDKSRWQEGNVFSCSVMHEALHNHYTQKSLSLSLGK
light: DIVMSQSPSSLAVSAGEKVTMSCKSSQSLLNSRTRKNQLAWYQQKPGQSPKLLIYWASTRESGVPDRFTGSGSGTDFTLTISSVQAEDLAVYYCKQSYNLRTFGGGTKLEIKRTVAAPSVFIFPPSDEQLKSGTASVVCLLNNFYPREAKVQWKVDNALQSGNSQESVTEQDSKDSTYSLSSTLTLSKADYEKHKVYACEVTHQGLSSPVTKSFNRGEC
notes: also called Control antibody 1; positive control
What is called IC50 is the midpoint of a concentration-inhibition curve. A low value points to inhibition by little substance. What is called Kd is the constant that tells how readily two partners part at equilibrium. In general, koff refers to the first-order rate constant of dissociation. For orientation: kon means the second-order rate constant of association. Broadly, the EC50 is the concentration giving half of the maximal effect. Low values mean a more potent agent, high ones a less potent agent. B2 showed an IC50 in experiment [2] of 71.7 nM. The “Competitive inhibition rate (%)” value in experiment [3] is 5.32%. Moreover, in experiment [4], the Kd is 26.3 nM, the koff is 0.00205 s⁻¹ and the kon was 78100 M⁻¹ s⁻¹. The “Competitive inhibition rate (%)” value in experiment [5] amounted to 77%. In experiment [6], the IC50 is 10.4 nM and the “Maximum inhibition rate (%)” value turned out to be 96.7%. Also, in experiment [7], a half-maximal response (EC50) required 2.55 nM and the “Maximum MFI” value worked out at 25100 MFI.
